Test results as given in patent publication US11015206B2, “Compositions and methods comprising sequences having hydroxyphenylpyruvate dioxygenase (HPPD) activity” (PIONEER HI-BRED INTERNATIONAL, INC., priority 2014, dated 2021).
Where a chain is given by its changes, count along the chain named.

B1: P056028-E-11 (protein)
chain: MGPTPTATAAGAAVAAASAAEQAAFRLVGHRNFVRFNPRSDRFQTLAFHHVELWCADAASAAGRFSFALGVPLAARSDLSTGNSAHASLLLRSGSLSLLFTAPYAHGADAATAALPSFSAAAARRFAADHGLAVRAVALRVADAEDAFRASVAAGARPAFGPVDLGRGFRLAEVELYGDVVLRYVSYPDGGAGEPFLPGFEGVASSGAADYGLSRFDHIVGNVPELAPAAAYMAGFTGFHEFAEFTTEDVGTTESGLNSMALANNSENVLLPLNEPVHGTKRRSQIQTFLDHHGGPGVQHIALASDDVLRTLREMRARSAMGGFEFLPPPLSDYYDGVRRCAGDVLTEAQINECQELGVMVDRDDEGVLLQIFTKPVGDRPTFFLEIIQRIGCMEKDEKGQEYQKGGCGGFGKGNFGQLFKSIEDYEKSLEAKQAAAAATAQGS
modifications: Zea mays variant form created by artificial means.
B2: P056028-E-03 (protein)
chain: B1 chain with T45A, G191A, S206P, G417S
modifications: Zea mays variant form created by artificial means.
B3: P056028-E-05 (protein)
chain: B1 chain with G417Q
modifications: Zea mays variant form created by artificial means.
B4: P056028-E-06 (protein)
chain: B1 chain with G191A, S206P, E244K, R340K, M394K
modifications: Zea mays variant form created by artificial means.
B5: P056028-E-07 (protein)
chain: B1 chain with G191A, S206P, Y211L, G417Q, Q434R
modifications: Zea mays variant form created by artificial means.
B6: P056028-E-08 (protein)
chain: B1 chain with G191A, S206P, E356R
modifications: Zea mays variant form created by artificial means.
B7: P056028-E-09 (protein)
chain: B1 chain with S206Q, R340K
modifications: Zea mays variant form created by artificial means.
B8: P056028-F-10 (protein)
chain: B1 chain with S206P, S214N, R340K
modifications: Zea mays variant form created by artificial means.
B9: P056028-F-11 (protein)
chain: B1 chain with S206P, N265D
modifications: Zea mays variant form created by artificial means.
B10: P056028-F-03 (protein)
chain: B1 chain with S206P, L385I, M394T, G417S
modifications: Zea mays variant form created by artificial means.
B11: Mz wt (protein)
chain: MGPTPTAAAAGAAVAAASAAEQAAFRLVGHRNFVRFNPRSDRFHTLAFHHVELWCADAASAAGRFSFGLGAPLAARSDLSTGNSAHASLLLRSGSLSFLFTAPYAHGADAATAALPSFSAAAARRFAADHGLAVRAVALRVADAEDAFRASVAAGARPAFGPVDLGRGFRLAEVELYGDVVLRYVSYPDGAAGEPFLPGFEGVASPGAADYGLSRFDHIVGNVPELAPAAAYFAGFTGFHEFAEFTTEDVGTAESGLNSMVLANNSENVLLPLNEPVHGTKRRSQIQTFLDHHGGPGVQHMALASDDVLRTLREMQARSAMGGFEFMAPPTSDYYDGVRRRAGDVLTEAQIKECQELGVLVDRDDQGVLLQIFTKPVGDRPTLFLEIIQRIGCMEKDEKGQEYQKGGCGGFGKGNFSQLFKSIEDYEKSLEAKQAAAAAAAQGS
modifications: Zea mays
B12: P056028-F-04 (protein)
chain: B1 chain with G191A, S206P, I387L
modifications: Zea mays variant form created by artificial means.
B13: P056028-F-06 (protein)
chain: B1 chain with Y211L, S214N, R340K, E356K, I387L
modifications: Zea mays variant form created by artificial means.
B14: P056028-F-07 (protein)
chain: B1 chain with S206P, R340K, Q434H
modifications: Zea mays variant form created by artificial means.
B15: P056028-F-08 (protein)
chain: B1 chain with P158K, G191A, S206P, Y211L, R340K
modifications: Zea mays variant form created by artificial means.

Assays:
Type in all cases: biochemical, Z. mays
[1] = test system: 4-hydroxyphenylpyruvate dioxygenase (HPPD); assay: Insensitivity parameter (ON × OFF) and trait fitness (ON × OFF × kcat/KM or × kcat); parameters: key to ON × OFF / Insensitivity, mesotrione, ON × OFF / Insensitivity, tembotrione, ON × OFF / Insensitivity, topramezone, ON × OFF / Insensitivity, sulcotrione, ON × OFF / Insensitivity, isoxaflutole (DKN), ON × OFF: insensitivity = ON rate ratio × OFF rate ratio (surrogate for KD)
In short: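 Trait fitness combines catalysis and insensitivity as kcat/KM × ON rate ratio × OFF rate ratio. The insensitivity parameter is the product of ON and OFF rate ratios, used in place of KD because the ON rate ratio is inverse.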

[2] = test system: 4-hydroxyphenylpyruvate dioxygenase (HPPD); assay: OFF rate ratio: release of inhibitor from pre-formed enzyme-inhibitor complex; settings: Table 7; tembotrione; combinatorial variants
In short: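 Inhibitor release from pre-formed complex (enzyme 7.2 μM, inhibitor 8 μM, 1 h RT) tracked as accelerating HPPD activity at 320 nm over 12 min, coupled via 50 nM HGD with 100 μM HPP at pH 7. OFF rate ratio: steady-state velocity relative to uninhibited initial velocity.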

[3] = test system: 4-hydroxyphenylpyruvate dioxygenase (HPPD); assay: ON rate ratio: HPPD reaction rate with vs without inhibitor in the 70 to 90 second interval; settings: Table 7; tembotrione; combinatorial variants
In short: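 Indicator of inhibitor on-rate: reaction velocity in the 70 to 90 second window with 4 μM inhibitor divided by that without. Reactions contained 100 μM HPP and 60 or 120 nM HPPD; slower binding gives a larger ratio.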

[4] = test system: 4-hydroxyphenylpyruvate dioxygenase (HPPD); assay: Estimate of kcat from initial rate at saturating hydroxyphenylpyruvate without inhibitor (ON rate ratio assay)
In short: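 kcat was estimated from the initial reaction rate with known enzyme level (60 or 120 nM HPPD). Hydroxyphenylpyruvate was at a saturating 100 μM, with no inhibitor present.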

[5] = Table 7, tembotrione, combinatorial variants
[6] = Table 7, combinatorial variants

Row | Molecule | ON × OFF ([1]; Megatable 3, shuffled variants) | ON × OFF × kcat ([1]; Megatable 3, shuffled variants) | ON × OFF [1, 5] | ON × OFF × kcat [1, 5] | OFF rate ratio [2] | ON rate ratio [3] | kcat ([4]; Megatable 3, shuffled variants) [s⁻¹] | kcat [4, 6] [s⁻¹]
1 | B1 | 0.219 | 3.70 | 0.219 | 3.70 | 0.304 | 0.721 | 0.282 | 0.282
2 | B2 | 0.303 | 5.10 | 0.303 | 5.10 | 0.412 | 0.735 | 0.282 | 0.282
3 | B3 | 0.229 | 3.48 | 0.229 | 3.48 | 0.325 | 0.704 | 0.253 | 0.253
4 | B4 | 0.064 | 1.76 | 0.064 | 1.76 | 0.186 | 0.346 | 0.47 | 0.47
5 | B5 | 0.153 | 3.08 | 0.153 | 3.08 | 0.262 | 0.585 | 0.343 | 0.343
6 | B6 | 0.281 | 3.55 | 0.281 | 3.55 | 0.410 | 0.685 | 0.21 | 0.21
7 | B7 | 0.208 | 3.10 | 0.208 | 3.10 | 0.308 | 0.676 | 0.248 | 0.248
8 | B8 | 0.211 | 2.89 | 0.211 | 2.89 | 0.291 | 0.726 | 0.228 | 0.228
9 | B9 | 0.228 | 5.04 | 0.228 | 5.04 | 0.322 | 0.706 | 0.368 | 0.368
10 | B10 | 0.363 | 4.73 | 0.363 | 4.73 | 0.491 | 0.738 | 0.217 | 0.217
11 | B11 | 0.007 | 0.68 | 0.007 | 0.68 | 0.033 | 0.213 | 1.62 | 1.62
12 | B12 | 0.161 | 2.70 | 0.161 | 2.70 | 0.245 | 0.660 | 0.278 | 0.278
13 | B13 | 0.225 | 3.25 | 0.225 | 3.25 | 0.305 | 0.739 | 0.242 | 0.242
14 | B14 | 0.236 | 5.04 | 0.236 | 5.04 | 0.322 | 0.735 | 0.357 | 0.357
15 | B15 | 0.266 | 3.23 | 0.266 | 3.23 | 0.377 | 0.705 | 0.202 | 0.202
